According to patent US20150344570A1 (published 2015):

B1: GpH7-B3 variant Y296_03V/GpL16-k0 (antibody, human IgG1, kappa)
heavy: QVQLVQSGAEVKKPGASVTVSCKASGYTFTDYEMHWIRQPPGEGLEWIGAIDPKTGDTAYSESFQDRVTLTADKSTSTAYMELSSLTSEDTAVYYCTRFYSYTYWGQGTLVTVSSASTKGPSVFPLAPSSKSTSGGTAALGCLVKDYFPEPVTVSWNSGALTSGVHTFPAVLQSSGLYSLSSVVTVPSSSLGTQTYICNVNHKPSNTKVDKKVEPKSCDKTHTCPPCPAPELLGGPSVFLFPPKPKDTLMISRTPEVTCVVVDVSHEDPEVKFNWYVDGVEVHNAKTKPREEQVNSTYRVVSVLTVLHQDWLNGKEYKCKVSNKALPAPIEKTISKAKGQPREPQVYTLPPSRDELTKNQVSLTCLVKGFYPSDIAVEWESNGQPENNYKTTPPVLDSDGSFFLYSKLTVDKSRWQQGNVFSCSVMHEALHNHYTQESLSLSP
light: DIVMTQSPLSLPVTPGEPASISCQASESLVHSNRNTYLHWYLQKPGQSPQLLIYKVSNRFSGVPDRFSGSGSGTDFTLKISRVEAEDVGVYYCSQNTHVPPTFGQGTKVEIERTVAAPSVFIFPPSDEQLKSGTASVVCLLNNFYPREAKVQWKVDNALQSGNSQESVTEQDSKDSTYSLSSTLTLSKADYEKHKVYACEVTHQGLSSPVTKSFNRGEC
notes: Alteration in both H chains; also called Ho Ab Y296_03V
B2: GpH7-B3 variant Y296_07I/GpL16-k0 (antibody, human IgG1, kappa)
heavy: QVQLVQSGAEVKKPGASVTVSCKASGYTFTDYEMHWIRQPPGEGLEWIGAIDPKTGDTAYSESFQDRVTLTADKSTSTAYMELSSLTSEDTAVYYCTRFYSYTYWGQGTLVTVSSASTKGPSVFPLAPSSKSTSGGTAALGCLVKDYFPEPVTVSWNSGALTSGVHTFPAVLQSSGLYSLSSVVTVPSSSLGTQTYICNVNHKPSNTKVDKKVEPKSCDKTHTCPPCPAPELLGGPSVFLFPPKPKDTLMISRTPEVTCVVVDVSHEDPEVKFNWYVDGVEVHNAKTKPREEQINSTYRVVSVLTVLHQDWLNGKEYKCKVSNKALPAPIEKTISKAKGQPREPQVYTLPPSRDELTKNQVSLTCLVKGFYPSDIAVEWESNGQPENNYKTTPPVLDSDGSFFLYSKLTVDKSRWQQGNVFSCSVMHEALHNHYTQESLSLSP
light: DIVMTQSPLSLPVTPGEPASISCQASESLVHSNRNTYLHWYLQKPGQSPQLLIYKVSNRFSGVPDRFSGSGSGTDFTLKISRVEAEDVGVYYCSQNTHVPPTFGQGTKVEIERTVAAPSVFIFPPSDEQLKSGTASVVCLLNNFYPREAKVQWKVDNALQSGNSQESVTEQDSKDSTYSLSSTLTLSKADYEKHKVYACEVTHQGLSSPVTKSFNRGEC
notes: Alteration in both H chains; also called Ho Ab Y296_07I
B3: GpH7-B3 variant Y296_08L/GpL16-k0 (antibody, human IgG1, kappa)
heavy: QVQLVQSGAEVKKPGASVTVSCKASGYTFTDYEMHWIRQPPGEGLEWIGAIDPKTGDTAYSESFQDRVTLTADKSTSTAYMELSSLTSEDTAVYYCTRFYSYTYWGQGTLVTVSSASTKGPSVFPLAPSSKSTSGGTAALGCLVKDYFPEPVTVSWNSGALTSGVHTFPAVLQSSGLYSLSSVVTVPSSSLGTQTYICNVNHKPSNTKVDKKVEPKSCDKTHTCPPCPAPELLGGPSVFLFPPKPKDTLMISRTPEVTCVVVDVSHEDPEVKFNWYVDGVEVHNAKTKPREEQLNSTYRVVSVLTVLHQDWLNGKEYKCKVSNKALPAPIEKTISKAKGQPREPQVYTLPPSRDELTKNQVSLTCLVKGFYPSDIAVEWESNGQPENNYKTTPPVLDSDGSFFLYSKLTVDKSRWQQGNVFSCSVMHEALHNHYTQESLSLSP
light: DIVMTQSPLSLPVTPGEPASISCQASESLVHSNRNTYLHWYLQKPGQSPQLLIYKVSNRFSGVPDRFSGSGSGTDFTLKISRVEAEDVGVYYCSQNTHVPPTFGQGTKVEIERTVAAPSVFIFPPSDEQLKSGTASVVCLLNNFYPREAKVQWKVDNALQSGNSQESVTEQDSKDSTYSLSSTLTLSKADYEKHKVYACEVTHQGLSSPVTKSFNRGEC
notes: Alteration in both H chains; also called Ho Ab Y296_08L
B4: GpH7-B3 variant Y300_07I/GpL16-k0 (antibody, human IgG1, kappa)
heavy: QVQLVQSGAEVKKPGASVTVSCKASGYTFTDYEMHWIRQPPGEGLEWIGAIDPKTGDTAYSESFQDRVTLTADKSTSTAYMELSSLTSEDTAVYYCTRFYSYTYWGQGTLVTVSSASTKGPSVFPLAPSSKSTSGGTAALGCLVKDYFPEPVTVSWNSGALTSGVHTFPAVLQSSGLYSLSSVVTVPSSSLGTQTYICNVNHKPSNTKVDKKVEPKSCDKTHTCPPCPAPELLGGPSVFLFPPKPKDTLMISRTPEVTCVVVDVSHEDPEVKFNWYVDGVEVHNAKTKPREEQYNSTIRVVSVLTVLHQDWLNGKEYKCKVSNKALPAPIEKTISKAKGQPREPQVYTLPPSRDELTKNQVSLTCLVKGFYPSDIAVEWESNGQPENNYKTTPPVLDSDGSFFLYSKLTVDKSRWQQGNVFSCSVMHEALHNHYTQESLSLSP
light: DIVMTQSPLSLPVTPGEPASISCQASESLVHSNRNTYLHWYLQKPGQSPQLLIYKVSNRFSGVPDRFSGSGSGTDFTLKISRVEAEDVGVYYCSQNTHVPPTFGQGTKVEIERTVAAPSVFIFPPSDEQLKSGTASVVCLLNNFYPREAKVQWKVDNALQSGNSQESVTEQDSKDSTYSLSSTLTLSKADYEKHKVYACEVTHQGLSSPVTKSFNRGEC
notes: Alteration in both H chains; also called Ho Ab Y300_07I
B5: GpH7-B3 variant Y300_16H/GpL16-k0 (antibody, human IgG1, kappa)
heavy: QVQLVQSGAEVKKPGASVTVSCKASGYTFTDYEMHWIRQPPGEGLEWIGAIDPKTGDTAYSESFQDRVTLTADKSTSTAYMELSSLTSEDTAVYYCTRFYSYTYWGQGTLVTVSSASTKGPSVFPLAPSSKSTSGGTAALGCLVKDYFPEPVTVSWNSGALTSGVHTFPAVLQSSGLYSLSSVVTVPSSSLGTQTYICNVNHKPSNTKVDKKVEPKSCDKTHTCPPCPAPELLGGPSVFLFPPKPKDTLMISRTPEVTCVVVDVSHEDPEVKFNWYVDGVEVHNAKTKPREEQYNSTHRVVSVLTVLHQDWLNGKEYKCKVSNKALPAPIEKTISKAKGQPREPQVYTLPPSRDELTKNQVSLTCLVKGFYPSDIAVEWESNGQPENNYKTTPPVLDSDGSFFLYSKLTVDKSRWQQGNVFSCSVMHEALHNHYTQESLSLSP
light: DIVMTQSPLSLPVTPGEPASISCQASESLVHSNRNTYLHWYLQKPGQSPQLLIYKVSNRFSGVPDRFSGSGSGTDFTLKISRVEAEDVGVYYCSQNTHVPPTFGQGTKVEIERTVAAPSVFIFPPSDEQLKSGTASVVCLLNNFYPREAKVQWKVDNALQSGNSQESVTEQDSKDSTYSLSSTLTLSKADYEKHKVYACEVTHQGLSSPVTKSFNRGEC
notes: Alteration in both H chains; also called Ho Ab Y300_16H
B6: GpH7-A5/GpH7-B3 variant K334_01G/GpL16-k0 (antibody, human IgG1, kappa)
heavy 1: not shown
heavy 2: not shown
light: DIVMTQSPLSLPVTPGEPASISCQASESLVHSNRNTYLHWYLQKPGQSPQLLIYKVSNRFSGVPDRFSGSGSGTDFTLKISRVEAEDVGVYYCSQNTHVPPTFGQGTKVEIERTVAAPSVFIFPPSDEQLKSGTASVVCLLNNFYPREAKVQWKVDNALQSGNSQESVTEQDSKDSTYSLSSTLTLSKADYEKHKVYACEVTHQGLSSPVTKSFNRGEC
notes: Alteration in one H chain only; also called He Ab K334_01G
B7: GpH7-A5/GpH7-B3 variant I336_15Y/GpL16-k0 (antibody, human IgG1, kappa)
heavy 1: not shown
heavy 2: not shown
light: DIVMTQSPLSLPVTPGEPASISCQASESLVHSNRNTYLHWYLQKPGQSPQLLIYKVSNRFSGVPDRFSGSGSGTDFTLKISRVEAEDVGVYYCSQNTHVPPTFGQGTKVEIERTVAAPSVFIFPPSDEQLKSGTASVVCLLNNFYPREAKVQWKVDNALQSGNSQESVTEQDSKDSTYSLSSTLTLSKADYEKHKVYACEVTHQGLSSPVTKSFNRGEC
notes: Alteration in one H chain only; also called He Ab I336_15Y
B8: GpH7-A5/GpH7-B3 variant I336_16H/GpL16-k0 (antibody, human IgG1, kappa)
heavy 1: not shown
heavy 2: not shown
light: DIVMTQSPLSLPVTPGEPASISCQASESLVHSNRNTYLHWYLQKPGQSPQLLIYKVSNRFSGVPDRFSGSGSGTDFTLKISRVEAEDVGVYYCSQNTHVPPTFGQGTKVEIERTVAAPSVFIFPPSDEQLKSGTASVVCLLNNFYPREAKVQWKVDNALQSGNSQESVTEQDSKDSTYSLSSTLTLSKADYEKHKVYACEVTHQGLSSPVTKSFNRGEC
notes: Alteration in one H chain only; also called He Ab I336_16H
B9: GpH7-A5/GpH7-B3 variant K326_03V/GpL16-k0 (antibody, human IgG1, kappa)
heavy 1: not shown
heavy 2: not shown
light: DIVMTQSPLSLPVTPGEPASISCQASESLVHSNRNTYLHWYLQKPGQSPQLLIYKVSNRFSGVPDRFSGSGSGTDFTLKISRVEAEDVGVYYCSQNTHVPPTFGQGTKVEIERTVAAPSVFIFPPSDEQLKSGTASVVCLLNNFYPREAKVQWKVDNALQSGNSQESVTEQDSKDSTYSLSSTLTLSKADYEKHKVYACEVTHQGLSSPVTKSFNRGEC
notes: Alteration in one H chain only; also called He Ab K326_03V
B10: GpH7-A5/GpH7-B3 variant K326_04F/GpL16-k0 (antibody, human IgG1, kappa)
heavy 1: not shown
heavy 2: not shown
light: DIVMTQSPLSLPVTPGEPASISCQASESLVHSNRNTYLHWYLQKPGQSPQLLIYKVSNRFSGVPDRFSGSGSGTDFTLKISRVEAEDVGVYYCSQNTHVPPTFGQGTKVEIERTVAAPSVFIFPPSDEQLKSGTASVVCLLNNFYPREAKVQWKVDNALQSGNSQESVTEQDSKDSTYSLSSTLTLSKADYEKHKVYACEVTHQGLSSPVTKSFNRGEC
notes: Alteration in one H chain only; also called He Ab K326_04F
B11: GpH7-A5/GpH7-B3 variant K326_06M/GpL16-k0 (antibody, human IgG1, kappa)
heavy 1: not shown
heavy 2: not shown
light: DIVMTQSPLSLPVTPGEPASISCQASESLVHSNRNTYLHWYLQKPGQSPQLLIYKVSNRFSGVPDRFSGSGSGTDFTLKISRVEAEDVGVYYCSQNTHVPPTFGQGTKVEIERTVAAPSVFIFPPSDEQLKSGTASVVCLLNNFYPREAKVQWKVDNALQSGNSQESVTEQDSKDSTYSLSSTLTLSKADYEKHKVYACEVTHQGLSSPVTKSFNRGEC
notes: Alteration in one H chain only; also called He Ab K326_06M

molecular target: T1, FcγRIa (human, UniProt P12314 16-292); assay: SPR (Biacore), relative binding; control HoCon Ab GpH7-B3/GpL16-k0
T1 construct: extracellular domain; also called FcgRI; FcgRIa; not shown: His tag attached to the C terminus
T1 sequence (P12314 16-292): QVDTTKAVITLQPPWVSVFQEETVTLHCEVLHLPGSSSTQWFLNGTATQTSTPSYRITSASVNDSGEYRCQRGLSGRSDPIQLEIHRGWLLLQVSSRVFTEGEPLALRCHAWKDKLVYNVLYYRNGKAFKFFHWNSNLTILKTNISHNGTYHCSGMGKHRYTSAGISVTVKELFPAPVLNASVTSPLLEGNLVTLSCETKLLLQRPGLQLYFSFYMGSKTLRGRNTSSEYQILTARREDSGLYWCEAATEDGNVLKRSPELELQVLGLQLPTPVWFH

Which Ho/Con_1a does the source give for B1 here?
Its Ho/Con_1a is 104 % of control (=100).

With B2 as the binder, how does the Ho/Con_1a read?
The Ho/Con_1a was 106 % of control (=100).

For B3, which Ho/Con_1a is on record?
Its Ho/Con_1a is 105 % of control (=100).

For B4, which Ho/Con_1a is on record?
Its Ho/Con_1a is 109 % of control (=100).

How did the Ho/Con_1a turn out when B5 was run?
The Ho/Con_1a was 111 % of control (=100).

molecular target: T1, FcγRIa; assay: SPR (Biacore), relative binding; control HeCon Ab GpH7-A5/GpH7-B3/GpL16-k0

B6 was tested. Which He/Con_1a did it give?
Its He/Con_1a is 104 % of control (=100).

B7 was tested. Which He/Con_1a did it give?
The He/Con_1a was 103 % of control (=100).

For B8, which He/Con_1a is on record?
Its He/Con_1a is 101 % of control (=100).

For B9, which He/Con_1a is on record?
Its He/Con_1a is 102 % of control (=100).

For B10, which He/Con_1a is on record?
Its He/Con_1a is 102 % of control (=100).

How did the He/Con_1a turn out when B11 was run?
Its He/Con_1a is 102 % of control (=100).
